Like-named read-outs stand apart in the source and are kept apart here.

Here are results for seven molecules from paper PMC6859848 (2019).

Series [1] concerns rG1 (5'-Alexa Fluor 647) (RNA, G4) ACCGGGGCAGGGGAAGAGGGGG
The series can be described thus: fluorescence quenching titration. The settings on record: K+ 100 mM (KCl); 10 mM Tris, 5% DMSO; 100 nM RNA; single site fit; apparent.

Series [2] has as its target T1, HNRNPH1 full-length (UniProt P31943 1-449).
T1 sequence: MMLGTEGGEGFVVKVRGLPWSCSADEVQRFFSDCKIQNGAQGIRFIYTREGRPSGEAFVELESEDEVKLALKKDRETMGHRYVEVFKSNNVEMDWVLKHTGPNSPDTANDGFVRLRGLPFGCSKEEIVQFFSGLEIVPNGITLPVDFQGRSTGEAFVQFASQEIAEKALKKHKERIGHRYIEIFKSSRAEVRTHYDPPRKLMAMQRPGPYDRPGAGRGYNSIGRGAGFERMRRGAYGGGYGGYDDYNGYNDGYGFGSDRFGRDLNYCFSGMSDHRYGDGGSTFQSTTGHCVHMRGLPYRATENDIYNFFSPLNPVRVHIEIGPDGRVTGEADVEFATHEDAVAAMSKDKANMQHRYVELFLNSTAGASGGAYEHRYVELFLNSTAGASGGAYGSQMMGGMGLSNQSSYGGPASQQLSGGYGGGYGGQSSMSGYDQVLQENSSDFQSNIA
The series can be described thus: EMSA.

Series [3] concerns the target T1, HNRNPH1 full-length. The experiment in a line: EMSA. The source holds these as a separate data set.
A further series addresses T2, HNRNPH1 qRRM2 (UniProt P31943 103-194).
T2 sequence: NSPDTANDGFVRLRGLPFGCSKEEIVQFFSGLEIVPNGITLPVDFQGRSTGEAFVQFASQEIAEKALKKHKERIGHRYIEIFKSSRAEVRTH
The series can be described thus: SPR.

Series [4] has as its target T1, HNRNPH1 full-length. The series can be described thus: SPR.
In another series the target is T3, HNRNPH1 qRRM3 (UniProt P31943 277-381).
T3 sequence: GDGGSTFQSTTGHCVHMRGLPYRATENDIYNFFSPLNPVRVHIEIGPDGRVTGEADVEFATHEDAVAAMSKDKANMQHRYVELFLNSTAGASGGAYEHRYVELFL
The series can be described thus: SPR.

The target of a further series is T4, HNRNPH1 qRRM1 (UniProt P31943 1-102).
T4 sequence: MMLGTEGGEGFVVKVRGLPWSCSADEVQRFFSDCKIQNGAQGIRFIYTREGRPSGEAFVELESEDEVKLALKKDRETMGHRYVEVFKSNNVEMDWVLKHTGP
The experiment in a line: SPR.

The target in a further series is T5, HNRNPH1 qRRM1-2 (UniProt P31943 1-194).
T5 sequence: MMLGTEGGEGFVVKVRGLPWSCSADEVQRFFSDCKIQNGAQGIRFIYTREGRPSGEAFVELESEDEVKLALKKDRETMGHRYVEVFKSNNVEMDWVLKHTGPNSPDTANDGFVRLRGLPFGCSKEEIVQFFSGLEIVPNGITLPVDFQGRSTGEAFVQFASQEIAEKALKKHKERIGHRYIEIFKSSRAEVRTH
The series can be described thus: SPR.

In series [5] the target is T6, HNRNPH1 qRRM2-3 (qRRM2-GYR-qRRM3) (UniProt P31943 103-381).
T6 sequence: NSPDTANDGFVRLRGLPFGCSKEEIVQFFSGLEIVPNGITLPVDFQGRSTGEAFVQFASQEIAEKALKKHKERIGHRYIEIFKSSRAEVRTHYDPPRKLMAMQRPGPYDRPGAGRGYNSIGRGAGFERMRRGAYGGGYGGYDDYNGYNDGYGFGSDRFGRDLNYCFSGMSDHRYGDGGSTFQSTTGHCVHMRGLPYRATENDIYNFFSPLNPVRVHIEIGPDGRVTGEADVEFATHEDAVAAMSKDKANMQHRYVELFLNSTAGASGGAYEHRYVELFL
The experiment in a line: SPR.

Another series has as its target T7, HNRNPH1 delta1-103 (UniProt P31943 104-449, del1-103).
T7 sequence: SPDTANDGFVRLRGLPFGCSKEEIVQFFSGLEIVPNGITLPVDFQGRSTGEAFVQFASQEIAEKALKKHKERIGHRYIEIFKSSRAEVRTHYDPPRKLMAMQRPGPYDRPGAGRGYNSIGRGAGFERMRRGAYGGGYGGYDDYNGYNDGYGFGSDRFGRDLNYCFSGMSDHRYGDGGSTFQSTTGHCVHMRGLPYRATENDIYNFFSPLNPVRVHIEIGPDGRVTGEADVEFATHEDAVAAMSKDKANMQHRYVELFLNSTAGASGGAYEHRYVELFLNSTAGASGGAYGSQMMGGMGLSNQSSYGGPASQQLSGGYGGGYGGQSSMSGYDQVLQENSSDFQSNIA
The series can be described thus: SPR.

In series [6] the target is T1, HNRNPH1 full-length. The series can be described thus: competition.
The target in series [7] is T1, HNRNPH1 full-length. The series can be described thus: antibody-based RNA binding assay.

With `NCCOc1cc(C(=O)Nc2cc(OCCN)c3ccccc3n2)nc(C(=O)Nc2cc(OCCN)c3ccccc3n2)c1`, the “KD^app” value in [1] is 4600 nM.
With AGCAGAGGUGGGCGGGGAGGAGGAC (ssRNA) [rG2a], the binding result with HNRNPH1 full-length [2] was “binds”.
For the molecule GAUCGUGGAGGCAUGAGCAGAGGUG (ssRNA) [Linker], the binding result in the series with HNRNPH1 full-length [3] was “no binding”.
With GUGGGCGGGGAGGAGGACGCGGUGGAAU (ssRNA) [rG2b], the binding result with HNRNPH1 full-length [2] is recorded as “binds”.
ACCGGGGCAGGGGAAGAGGGGG (structured_RNA) [rG1 5'-biotin (SPR)]: the Kd with HNRNPH1 qRRM2 is 22 nM; with HNRNPH1 full-length [4], 4.8 nM; in the series with HNRNPH1 qRRM3 it was 315 nM; in the series with HNRNPH1 qRRM1, 30 nM; in the series with HNRNPH1 qRRM1-2 it was 1.5 nM; in series [5] it was 97 nM. Further, the Kd with HNRNPH1 delta1-103 is 2.4 nM.
Regarding ACCGGGGCAGGGGAAGAGGGGGAUU (structured_RNA) [rG1 nonbiotinylated competitor], the IC50 with HNRNPH1 full-length [6] was 84 nM. In other words, the double-digit nanomolar range.
As to ACCGGGGCAGGGGAAGAGGGGGAUU (structured_RNA) [rG1 3'-biotin], in the series with HNRNPH1 full-length [7], binding was put at a Kd of 30 ± 2 nM.
